This note sets out measurements from US20220041736A1 (Amgen, published 2022).

Where a chain is given by its changes, count along the chain named. Names may count otherwise.

In experiment [1] the target is T1, BSA (bovine serum albumin, blocking agent) (bovine, UniProt P02769 25-607).
T1 construct: also called bovine Albumin, fraction V
Kind of experiment: ELISA, blocked wells without antigen, crude periplasmic preparation.

The target of experiment [2] is T2, 1-27 CD3-Fc (N-terminal amino acids 1-27 of the mature human CD3 epsilon chain fused to the hinge and Fc … (human)).
T2 construct: Entry 229 is printed without the leader peptide; also called 27 aa huCD3ε; 1-27 CD3ε-Fc
The experiment can be described thus: ELISA, immobilized antigen, crude periplasmic preparation.

In experiment [3] the target is T3, human 1-27 CD3 BSA conjugate (peptide of the N-terminal amino acids 1-27 of human CD3 epsilon plus C-terminal … (human, printed as acetyl-QDGNEEMGGITQTPYKVSISGTTVILTC; C-terminal Cys 28 coupled to maleimide activated BSA).
T3 construct: also called peptide-BSA conjugate
T3 peptide: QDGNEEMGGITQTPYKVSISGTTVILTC
Described as above.

Experiment [4] deals with T2, 1-27 CD3-Fc (N-terminal amino acids …). The experiment can be described thus: ELISA, captured 1-27 CD3-Fc, crude periplasmic scFv. (In an ELISA, binding on a coated surface is turned into a signal by an enzyme label.)
The target in the next experiment is T4, swine 1-27 CD3ε-EpCAM (Sus scrofa CD3 epsilon 1-27 / …).
T4 construct: Negative control construct on 293-HEK or CHO cells; also called 1-27 CD3-EpCAM comprising the swine 27 mer
T4 chain: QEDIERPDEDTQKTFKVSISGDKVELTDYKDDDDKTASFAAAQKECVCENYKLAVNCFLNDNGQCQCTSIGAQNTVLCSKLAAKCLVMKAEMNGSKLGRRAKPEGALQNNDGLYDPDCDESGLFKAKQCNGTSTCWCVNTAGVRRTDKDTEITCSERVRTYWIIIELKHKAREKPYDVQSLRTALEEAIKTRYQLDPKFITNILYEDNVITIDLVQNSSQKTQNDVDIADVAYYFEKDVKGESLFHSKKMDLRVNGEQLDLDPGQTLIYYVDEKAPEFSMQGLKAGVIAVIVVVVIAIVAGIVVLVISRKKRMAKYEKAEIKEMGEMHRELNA
Kind of experiment: FACS, transfected 293-HEK cells, crude periplasmic scFv. On the technique in general: In flow cytometry, cells or beads pass a laser one at a time.

In experiment [5] the target is T5, human 1-27 CD3ε-EpCAM (1-27 N-terminal amino acids of human CD3 epsilon, Flag tag, cynomolgus EpCAM) (human CD3 epsilon 1-27 / cynomolgus …).
T5 construct: also called 1-27 CD3-EpCAM comprising the human 27 mer
T5 chain: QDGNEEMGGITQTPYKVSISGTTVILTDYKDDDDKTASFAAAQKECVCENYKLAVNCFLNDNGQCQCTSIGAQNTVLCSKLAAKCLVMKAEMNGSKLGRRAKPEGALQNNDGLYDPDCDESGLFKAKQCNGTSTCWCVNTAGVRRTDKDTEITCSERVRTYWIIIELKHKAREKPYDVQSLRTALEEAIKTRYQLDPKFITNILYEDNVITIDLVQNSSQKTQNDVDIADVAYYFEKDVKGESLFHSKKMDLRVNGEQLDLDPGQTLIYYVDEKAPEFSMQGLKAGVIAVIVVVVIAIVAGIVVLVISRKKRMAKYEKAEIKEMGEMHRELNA
Kind of experiment: FACS, transfected 293-HEK cells.

The next experiment concerns the target T6, tamarin 1-27 CD3ε-EpCAM (Saguinus oedipus CD3 epsilon 1-27 / …).
T6 construct: Transmembrane fusion on 293-HEK or CHO cells; also called 1-27 CD3-EpCAM comprising the tamarin 27 mer
T6 chain: T5 chain with G9D, I10T, T13N, I25T
The experiment can be described thus: FACS, transfected 293-HEK cells.

In experiment [6] the target is T7, squirrel monkey 1-27 CD3ε-EpCAM (Saimiri sciureus CD3 epsilon 1-27 / …).
T7 construct: Transmembrane fusion on 293-HEK or CHO cells; also called 1-27 CD3-EpCAM comprising the squirrel monkey 27 mer
T7 chain: T5 chain with M7I, G9D, I10T, T13N, I25T
Kind of experiment: FACS, transfected 293-HEK cells.

Another experiment deals with T8, marmoset 1-27 CD3ε-EpCAM (Callithrix jacchus CD3 epsilon 1-27 / …).
T8 construct: Transmembrane fusion on 293-HEK or CHO cells; also called 1-27 CD3-EpCAM comprising the marmoset 27 mer
T8 chain: T5 chain with G9D, I10T, T13N, I25T
Kind of experiment: FACS, transfected 293-HEK cells.

T1 sequence (P02769 25-607 limits assumed): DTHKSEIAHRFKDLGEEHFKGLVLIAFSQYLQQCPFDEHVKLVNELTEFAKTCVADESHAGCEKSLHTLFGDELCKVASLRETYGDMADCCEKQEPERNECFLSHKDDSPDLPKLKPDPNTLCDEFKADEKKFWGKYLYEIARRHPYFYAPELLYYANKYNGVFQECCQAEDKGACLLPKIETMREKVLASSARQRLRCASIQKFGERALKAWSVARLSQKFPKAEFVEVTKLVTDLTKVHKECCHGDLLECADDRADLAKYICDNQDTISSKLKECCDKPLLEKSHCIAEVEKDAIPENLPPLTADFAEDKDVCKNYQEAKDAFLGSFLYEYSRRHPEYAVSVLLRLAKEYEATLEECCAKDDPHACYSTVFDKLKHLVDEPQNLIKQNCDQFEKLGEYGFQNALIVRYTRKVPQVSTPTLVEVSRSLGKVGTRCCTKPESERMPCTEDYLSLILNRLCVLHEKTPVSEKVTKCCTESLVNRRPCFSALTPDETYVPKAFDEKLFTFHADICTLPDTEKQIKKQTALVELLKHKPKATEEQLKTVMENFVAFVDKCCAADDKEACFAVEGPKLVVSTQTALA

B1: anti-CD3 single domain antibody CD3 3D-H11 (VHH)
VHH: EVQLVESGGGLVQPGGSLRLSCAASGFTFDDYGMSWVRQAPGKWLEWVSDISWNGGSTYYADSVKGRFTISRDNAENTLYLQMNSLKPDDTAVYYCAKMGEGGWGANDYWGQGTQVTVSS
notes: Crude periplasmic preparation from pComb3H5BFlag/His; also called V CD3 3D-H11
As to B1, the figures for the binding result in experiment [1], in experiment [2] and in [3] were “no binding”, “binds” and “binds”, respectively.

B2: A2J HLP single-chain antibody (scFv)
scFv: EVQLLESGGGLVQPGGSLKLSCAASGFTFNVYAMNWVRQAPGKGLEWVARIRSKYNNYATYYADSVKKRFTISRDDSKNTAYLQMNNLKTEDTAVYYCVRHGNFGNSYLSWWAYWGQGTLVTVSSGGGGSGGGGSGGGGSELVVTQEPSLTVSPGGTVTLTCRSSTGAVTSGYYPNWVQQKPGQAPRGLIGATDMRPSGTPARFSGSLLGGKAALTLSGVQPEDEAEYYCALWYSNRWVFGGGTKLTVLTGDYKDDDDKHHHHHH
notes: Crude periplasmic preparation from pComb3H5BFlag/His; also called VH-VL-P of A2J
As for B2, the binding result in experiment [4] was “binds”.

B3: E2M HLP single-chain antibody (scFv)
scFv: B2 scFv with V31G, K68E, G102R, W112F
notes: Crude periplasmic preparation; also called VH-VL-P of E2M
Take B3: the binding result with swine 1-27 CD3ε-EpCAM is “no binding”; in experiment [4] it was “binds”; in experiment [5], “binds”; in the experiment with tamarin 1-27 CD3ε-EpCAM, “binds”; in experiment [6] it was “binds”; in the experiment with marmoset 1-27 CD3ε-EpCAM, “binds”.
